Measured values as given in patent US20080058276A1, “ALZHEIMER'S DISEASE THERAPEUTICS BASED ON PIN-1 CATALYZED CONFORMATIONAL CHANGES IN PHOSPHORYLATED AMYLOID PRECURSOR PROTEIN” (CORNELL RESEARCH FOUNDATION, INC., priority 2006, published 2008).
Bridge positions count the residues as written; N and C are the ends. Square brackets hold non-standard residues; d marks the D form. Ends that are not written are not given here. pT = C[C@@H](OP(=O)(O)O)[C@H](N)C(=O)O; resin = not defined here

What was measured:
[1] = target: T1, pThr668-Pro motif in APP (21-residue phosphopeptide G659-Q679 of APP) (Homo sapiens, UniProt P05067); assay: NMR (ROESY) analysis of Pin1-catalyzed cis/trans isomerization of the pThr668-Pro bond; assay type: biochemical
T1 construct: isomerization of the pThr668-Pro bond in a 21-residue phosphopeptide (G659-Q679 of APP); made in house; host or cells: peptide chemically synthesized; Pin1 recombinant (bacteria, as said in general terms)
Procedure: All experiments were recorded at 25° C. on a Varian Inova 600 MHz spectrometer with the ^1H carrier set on water. ROESY data sets were acquired with spectral widths of 6 kHz (8 kHz) in t1 (t2) and 640 (2048) complex data points, and were processed as described in Ramelot & Nicholson, “Phosphorylation-induced Structural Changes in the Amyloid Precursor Protein Cytoplasmic Tail Detected by NMR,” J Mol Biol 307(3):871-84 (2001), which is hereby incorporated by reference in its entirety. Peak intensities were obtained using Pipp (Garrett et al., “A Common-sense Approach to Peak-picking in 2-Dimensional, 3-Dimensional, and 4-Dimensional Spectra Using Automatic Computer-analysis of Contour Diagrams,” J Magn Reson 95:214-20 (1991), which is hereby incorporated by reference in its entirety), and curve fits and error analyses were performed using SigmaPlot (Systat Software, Inc.). […] Ict/Icc=kct^cat[exp(kextm)−1]/[ktc^catexp(kextm)+kct^cat] Itc/Itt=ktc^cat[exp(kextm)−1]/[kct^catexp(kextm)+ktc^cat] where kex=kct^cat+ktc^cat, and tm corresponds to the ROESY mixing time. The desired rate constants were extracted by recording ROESY spectra with different mixing times and fitting the intensity ratios obtained to the above equations. ^15N—^1H HSQC data sets were acquired with spectral widths of 1.4 kHz (10 kHz) in t1 (t2) and 512 (2048) complex data points, and were processed as described in Ramelot & Nicholson, “Phosphorylation-induced Structural Changes in the Amyloid Precursor Protein Cytoplasmic Tail Detected by NMR,” J Mol Biol 307(3):871-84 (2001), which is hereby incorporated by reference in its entirety.
In the ROESY spectrum, the intensities of exchange and diagonal peaks for a two-state isomerization reaction explicitly depend on the forward (“kct^cat”) and backward (“ktc^cat”) rate constants (FIG. 5B), and on the mixing time (“tm”).

CHO-APP cells = assay: Total Aβ secretion (ELISA) after Pin1 overexpression in CHO-APP cells; assay type: cell-based, Chinese hamster; details: asynchronous or mitotic cells
CHO cells = assay: Total Aβ secretion (ELISA) after co-transfection of Pin1 and APP751 in CHO cells; assay type: cell-based, Chinese hamster; details: Pin1 overexpression with APP751, asynchronous or mitotic cells
APP = target: T2, APP (Homo sapiens, UniProt P05067, T743A); assay: GST-Pin1 pulldown of APP and its mutants; assay type: binding; details: expressed in mitotic cells
T2 construct: expressed in transfected cells; host or cells: N18 neuroblastoma cells transfected with HA-APP (from APP/pCMV)

Pin1 WW domain = target: T3, Pin1 WW domain (Homo sapiens, UniProt Q13526); assay: Competitive GST-WW pulldown of 32P-AICD; assay type: binding; details: increasing amounts of phosphopeptide
T3 construct: made in house; host or cells: bacteria
T3 sequence (Q13526 5-39 limits assumed): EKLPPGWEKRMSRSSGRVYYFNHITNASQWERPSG
Procedure: For competitive binding assays, synthetic peptides, APPtide (EVDAAVp[…] (SEQ ID NO: 13), and its non-phosphorylated counterpart, were synthesized and purchased from Merck Co. The accuracy and purity were identified by mass spectroscopy. APPtide was dissolved in the binding buffer described in Lu et al., “A Function of WW Domains as Phosphoserine- or Phosphothreonine-binding Modules,” Science 283:1325-1328 (1999), which is hereby incorporated by reference in its entirety, and added into the GST pull down reaction for the competitive binding assay (Lu et al., “A Function of WW Domains as Phosphoserine- or Phosphothreonine-binding Modules,” Science 283:1325-1328 (1999), which is hereby incorporated by reference in its entirety).
To identify the Pin1-binding site in APP, alanine was substituted for Thr668, the only Thr/Ser-Pro motif in the APP intracellular domain (“AICD”). […] AICD, but not AICD^T668A, was phosphorylated by Cdc2 (Suzuki et al., “Cell Cycle-dependent Regulation of the Phosphorylation and Metabolism of the Alzheimer Amyloid Precursor Protein,” Embo J 13(5): 1114-22 (1994), which is hereby incorporated by reference in its entirety).

[2] = NMR (2D 1H-1H TOCSY and 1D 31P) determination of cis and trans populations of phosphopeptide; assay type: physicochemical; details: pThr-Pro bond, NMR on reaction mixture
Source text: The cis conformation of the pThr-Pro motif in AICD is unique from the trans isomer in that it is stabilized by different hydrogen bonds, and it is more extended in backbone conformation, aside from the kink of the cis peptide bond (Ramelot & Nicholson, “Phosphorylation-induced Structural Changes in the Amyloid Precursor Protein Cytoplasmic Tail Detected by NMR,” J Mol Biol 307(3):871-84 (2001), which is hereby incorporated by reference in its entirety). It was hypothesized that the cis conformation could be stabilized by formation of a covalent bond between V667 NH and E670 COO— (hydrogen bonded in the NMR structure), thereby stabilizing the cis isomer relative to the trans. A 6-residue phosphopeptide corresponding to APP residues V667-R72 ([NH2]-V-pT-P-E-E-R-resin (SEQ ID NO: 1)) was commercially synthesized with an orthogonal blocking group on E4 (Tufts Core Facility), and sent on the resin. […] The spectra show two cis populations that most likely reflect different hydrogen bond geometries adopted in the cis isomer (Ramelot & Nicholson, “Phosphorylation-induced Structural Changes in the Amyloid Precursor Protein Cytoplasmic Tail Detected by NMR,” J Mol Biol 307(3):871-84 (2001), which is hereby incorporated by reference in its entirety).

WW domain of Pin1 = WW domain of Pin1 (Homo sapiens, UniProt Q13526); assay: 15N-1H HSQC titration of {15N}-WW with peptide; assay type: binding; details: relative to linear pAICD
Chain of WW domain of Pin1 (Q13526 5-39 limits assumed): as above
Procedure: The pThr668-Pro peptides were synthesized, purified, and analyzed as reported in (Ramelot & Nicholson, “Phosphorylation-induced Structural Changes in the Amyloid Precursor Protein Cytoplasmic Tail Detected by NMR,” J Mol Biol 307(3):871-84 (2001), which is hereby incorporated by reference in its entirety). […] For ^15N—^1H HSQC experiments, ^15N-E670-pT668 peptide was dissolved in the same buffer adjusted to pH 6.7, with subsequent addition of an equimolar amount of the WW domain (0.2 mM). All experiments were recorded at 25° C. on a Varian Inova 600 MHz spectrometer with the ^1H carrier set on water. ROESY data sets were acquired with spectral widths of 6 kHz (8 kHz) in t1 (t2) and 640 (2048) complex data points, and were processed as described in Ramelot & Nicholson, “Phosphorylation-induced Structural Changes in the Amyloid Precursor Protein Cytoplasmic Tail Detected by NMR,” J Mol Biol 307(3):871-84 (2001), which is hereby incorporated by reference in its entirety. […]
Natural abundance peptide (either the linear or cyclic pAICD peptide) was incrementally added to {^15N}-WW and peak shifts were monitored via ^15N—^1H HSQC spectra.

[3] = linear sequence; cited from earlier work

Pin1: peptidyl-prolyl isomerase that specifically isomerizes pSer/Thr-Pro bonds; GenBank Accession No. U49070
difference between kct^cat and ktc^cat rates [1]: 10 fold
acceleration of pThr668-Pro isomerization rate over typical uncatalyzed isomerization rates for pThr-Pro peptides ([1]; 3 mM peptide, 0.05 mM Pin1, 25° C.): several orders of magnitude
ROESY exchange cross peaks (E670-HN cis/trans) ([1]; catalytic amount of enzyme, 60:1 peptide:enzyme): exchange cross peaks were observed
average lifetime of the cis isomeric state ([1]; in presence of Pin1): ~0.05 s
average lifetime of the trans isomeric state ([1]; in presence of Pin1): ~0.5 s
acceleration of isomerization of the phosphorylated Thr668-Pro motif in APP ([1]; visualized by NMR): over 1000 fold
Aβ secretion (CHO-APP cells): significantly reduced
Aβ secretion (CHO cells): significantly reduced
binding to APP^T668A mutant (APP): failed to bind

EVDAAVpTPEERHLS (SEQ ID NO: 13) (EVDAAV[pT]PEERHLS) [pThr668-containing APP peptide]
competition of 32P-AICD binding to GST-WW (Pin1 WW domain): effectively competed

cyclic pAICD: VpTPEER (SEQ ID NO: 1) phosphopeptide cyclized by covalent bond between V667 NH and E670 COO- (V[pT]PEER; lactam N-4)
cis population [2]: ~30%
trans population [2]: 70%
WW domain peak shifts upon saturation with peptide (WW domain of Pin1): smaller peak shifts

[NH2]-V-pT-P-E-E-R-resin (SEQ ID NO: 1) (H-V[pT]PEER-resin; not fully specified; printed as [NH2]-V-pT-P-E-E-R-resin; reading uncertain) [6-residue phosphopeptide, linear phosphopeptide corresponding to APP residues V667-R72]
cis conformation [3]: 10%
trans conformation [3]: 90%
